The text below walks through data of patent publication US20240209062A1 (INVETX, published 2024).

B1: IgG with wild-type feline IgG1a Fc (antibody)
heavy: DVQLVESGGDLVKPGGSLRLTCVASGLSLTSDSMSWVRQAPGKGLQWVSTLWSNRGTYYTDSVKGRFTISKDNAENTLYLQMNNLKTEDTATYYCASIYYYEADYLHWYFDFWGQGALVTVSSASTTAPSVFPLAPSCGTTSGATVALACLVLGYFPEPVTVSWNSGALTSGVHTFPAVLQASGLYSLSSMVTVPSSRWLSDTFTCNVAHPPSNTKVDKTVRKTDHPPGPKPCDCPKCPPPEAAGGPSIFIFPPKPKDTLSISRTPEVTCLVVDLGPDDSDVQITWFVDNTQVYTAKTSPREEQFNSTYRVVSVLPILHQDWLKGKEFKCKVNSKSLPSPIERTISKAKGQPHEPQVYVLPPAQEELSRNKVSVTCLIKSFHPPDIAVEWEITGQPEPENNYRTTPPQLDSDGTYFVYSKLSVDRSHWQRGNTYTCSVSHEALHSHHTQKSLTQSPG
light: EIQMTQSPTSLSASVGDRVTITCRASEGIANNLSWYQQTPGKAPKLLIYATSNLHSGVPSRFSGSGSGTDFTLTISSLQPEDFATYYCQQGFKWPLTFGGGTKLEITRSDAQPSVFLFQPSLDELHTGSASIVCILNDFYPKEVNVKWKVDGVVQNKGIQESTTEQNSKDSTYSLSSTLTMSSTEYQSHEKFSCEVTHKSLASTLVKSFNRSECQRE
notes: Constant domain carries the MALA mutations (M234A, L244A as printed); variable domains from WO 2023/97275; also called Wild-type Fc; wild type feline Fc
B2: IgG with feline IgG1a Fc variant S252M, I377L (antibody)
heavy: DVQLVESGGDLVKPGGSLRLTCVASGLSLTSDSMSWVRQAPGKGLQWVSTLWSNRGTYYTDSVKGRFTISKDNAENTLYLQMNNLKTEDTATYYCASIYYYEADYLHWYFDFWGQGALVTVSSASTTAPSVFPLAPSCGTTSGATVALACLVLGYFPEPVTVSWNSGALTSGVHTFPAVLQASGLYSLSSMVTVPSSRWLSDTFTCNVAHPPSNTKVDKTVRKTDHPPGPKPCDCPKCPPPEAAGGPSIFIFPPKPKDTLMISRTPEVTCLVVDLGPDDSDVQITWFVDNTQVYTAKTSPREEQFNSTYRVVSVLPILHQDWLKGKEFKCKVNSKSLPSPIERTISKAKGQPHEPQVYVLPPAQEELSRNKVSVTCLIKSFHPPDLAVEWEITGQPEPENNYRTTPPQLDSDGTYFVYSKLSVDRSHWQRGNTYTCSVSHEALHSHHTQKSLTQSPG
light: EIQMTQSPTSLSASVGDRVTITCRASEGIANNLSWYQQTPGKAPKLLIYATSNLHSGVPSRFSGSGSGTDFTLTISSLQPEDFATYYCQQGFKWPLTFGGGTKLEITRSDAQPSVFLFQPSLDELHTGSASIVCILNDFYPKEVNVKWKVDGVVQNKGIQESTTEQNSKDSTYSLSSTLTMSSTEYQSHEKFSCEVTHKSLASTLVKSFNRSECQRE
notes: Printed '1377L' read as I377L; IgG1a constant domain with MALA mutations (M234A, L244A as printed); variable domains from WO 2023/97275; also called S252M, 1377L
B3: IgG with feline IgG1a Fc variant S252M (antibody)
heavy: DVQLVESGGDLVKPGGSLRLTCVASGLSLTSDSMSWVRQAPGKGLQWVSTLWSNRGTYYTDSVKGRFTISKDNAENTLYLQMNNLKTEDTATYYCASIYYYEADYLHWYFDFWGQGALVTVSSASTTAPSVFPLAPSCGTTSGATVALACLVLGYFPEPVTVSWNSGALTSGVHTFPAVLQASGLYSLSSMVTVPSSRWLSDTFTCNVAHPPSNTKVDKTVRKTDHPPGPKPCDCPKCPPPEAAGGPSIFIFPPKPKDTLMISRTPEVTCLVVDLGPDDSDVQITWFVDNTQVYTAKTSPREEQFNSTYRVVSVLPILHQDWLKGKEFKCKVNSKSLPSPIERTISKAKGQPHEPQVYVLPPAQEELSRNKVSVTCLIKSFHPPDIAVEWEITGQPEPENNYRTTPPQLDSDGTYFVYSKLSVDRSHWQRGNTYTCSVSHEALHSHHTQKSLTQSPG
light: EIQMTQSPTSLSASVGDRVTITCRASEGIANNLSWYQQTPGKAPKLLIYATSNLHSGVPSRFSGSGSGTDFTLTISSLQPEDFATYYCQQGFKWPLTFGGGTKLEITRSDAQPSVFLFQPSLDELHTGSASIVCILNDFYPKEVNVKWKVDGVVQNKGIQESTTEQNSKDSTYSLSSTLTMSSTEYQSHEKFSCEVTHKSLASTLVKSFNRSECQRE
notes: IgG1a constant domain with MALA mutations (M234A, L244A as printed); variable domains from WO 2023/97275
B4: IgG with feline IgG1a Fc variant S252M, L309V (antibody)
heavy: DVQLVESGGDLVKPGGSLRLTCVASGLSLTSDSMSWVRQAPGKGLQWVSTLWSNRGTYYTDSVKGRFTISKDNAENTLYLQMNNLKTEDTATYYCASIYYYEADYLHWYFDFWGQGALVTVSSASTTAPSVFPLAPSCGTTSGATVALACLVLGYFPEPVTVSWNSGALTSGVHTFPAVLQASGLYSLSSMVTVPSSRWLSDTFTCNVAHPPSNTKVDKTVRKTDHPPGPKPCDCPKCPPPEAAGGPSIFIFPPKPKDTLMISRTPEVTCLVVDLGPDDSDVQITWFVDNTQVYTAKTSPREEQFNSTYRVVSVLPIVHQDWLKGKEFKCKVNSKSLPSPIERTISKAKGQPHEPQVYVLPPAQEELSRNKVSVTCLIKSFHPPDIAVEWEITGQPEPENNYRTTPPQLDSDGTYFVYSKLSVDRSHWQRGNTYTCSVSHEALHSHHTQKSLTQSPG
light: EIQMTQSPTSLSASVGDRVTITCRASEGIANNLSWYQQTPGKAPKLLIYATSNLHSGVPSRFSGSGSGTDFTLTISSLQPEDFATYYCQQGFKWPLTFGGGTKLEITRSDAQPSVFLFQPSLDELHTGSASIVCILNDFYPKEVNVKWKVDGVVQNKGIQESTTEQNSKDSTYSLSSTLTMSSTEYQSHEKFSCEVTHKSLASTLVKSFNRSECQRE
notes: as for B3
B5: IgG with feline IgG1a Fc variant S252M, L309D (antibody)
heavy: DVQLVESGGDLVKPGGSLRLTCVASGLSLTSDSMSWVRQAPGKGLQWVSTLWSNRGTYYTDSVKGRFTISKDNAENTLYLQMNNLKTEDTATYYCASIYYYEADYLHWYFDFWGQGALVTVSSASTTAPSVFPLAPSCGTTSGATVALACLVLGYFPEPVTVSWNSGALTSGVHTFPAVLQASGLYSLSSMVTVPSSRWLSDTFTCNVAHPPSNTKVDKTVRKTDHPPGPKPCDCPKCPPPEAAGGPSIFIFPPKPKDTLMISRTPEVTCLVVDLGPDDSDVQITWFVDNTQVYTAKTSPREEQFNSTYRVVSVLPIDHQDWLKGKEFKCKVNSKSLPSPIERTISKAKGQPHEPQVYVLPPAQEELSRNKVSVTCLIKSFHPPDIAVEWEITGQPEPENNYRTTPPQLDSDGTYFVYSKLSVDRSHWQRGNTYTCSVSHEALHSHHTQKSLTQSPG
light: EIQMTQSPTSLSASVGDRVTITCRASEGIANNLSWYQQTPGKAPKLLIYATSNLHSGVPSRFSGSGSGTDFTLTISSLQPEDFATYYCQQGFKWPLTFGGGTKLEITRSDAQPSVFLFQPSLDELHTGSASIVCILNDFYPKEVNVKWKVDGVVQNKGIQESTTEQNSKDSTYSLSSTLTMSSTEYQSHEKFSCEVTHKSLASTLVKSFNRSECQRE
notes: as for B3
B6: IgG with feline IgG1a Fc variant S252M, I377Y (antibody)
heavy: DVQLVESGGDLVKPGGSLRLTCVASGLSLTSDSMSWVRQAPGKGLQWVSTLWSNRGTYYTDSVKGRFTISKDNAENTLYLQMNNLKTEDTATYYCASIYYYEADYLHWYFDFWGQGALVTVSSASTTAPSVFPLAPSCGTTSGATVALACLVLGYFPEPVTVSWNSGALTSGVHTFPAVLQASGLYSLSSMVTVPSSRWLSDTFTCNVAHPPSNTKVDKTVRKTDHPPGPKPCDCPKCPPPEAAGGPSIFIFPPKPKDTLMISRTPEVTCLVVDLGPDDSDVQITWFVDNTQVYTAKTSPREEQFNSTYRVVSVLPILHQDWLKGKEFKCKVNSKSLPSPIERTISKAKGQPHEPQVYVLPPAQEELSRNKVSVTCLIKSFHPPDYAVEWEITGQPEPENNYRTTPPQLDSDGTYFVYSKLSVDRSHWQRGNTYTCSVSHEALHSHHTQKSLTQSPG
light: EIQMTQSPTSLSASVGDRVTITCRASEGIANNLSWYQQTPGKAPKLLIYATSNLHSGVPSRFSGSGSGTDFTLTISSLQPEDFATYYCQQGFKWPLTFGGGTKLEITRSDAQPSVFLFQPSLDELHTGSASIVCILNDFYPKEVNVKWKVDGVVQNKGIQESTTEQNSKDSTYSLSSTLTMSSTEYQSHEKFSCEVTHKSLASTLVKSFNRSECQRE
notes: Printed '1377Y' read as I377Y; IgG1a constant domain with MALA mutations (M234A, L244A as printed); variable domains from WO 2023/97275; also called S252M, 1377Y

T1 sequence (chain, as listed by the source limits assumed, chain 1 of 2): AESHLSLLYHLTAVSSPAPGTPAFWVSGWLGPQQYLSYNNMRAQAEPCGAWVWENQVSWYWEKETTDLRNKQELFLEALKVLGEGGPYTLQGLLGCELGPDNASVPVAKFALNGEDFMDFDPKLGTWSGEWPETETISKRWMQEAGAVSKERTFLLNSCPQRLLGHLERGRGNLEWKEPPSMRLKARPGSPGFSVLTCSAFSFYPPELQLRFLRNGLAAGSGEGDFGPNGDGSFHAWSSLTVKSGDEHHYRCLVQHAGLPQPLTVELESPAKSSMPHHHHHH
T1 sequence (Q5MGS7 other isoform, or with tags, fused parts or gaps limits assumed, chain 2 of 2): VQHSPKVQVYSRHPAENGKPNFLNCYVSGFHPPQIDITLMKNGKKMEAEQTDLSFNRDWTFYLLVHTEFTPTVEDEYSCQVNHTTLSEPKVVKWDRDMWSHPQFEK

This test addresses T1, feline FcRn (soluble portion of large subunit p51 isoform X1 with C-terminal 6xHis-tag, co-expressed with … (feline, UniProt Q5MGS7 21-118)).
T1 construct: Heterodimer made by co-expression in CHO cells, purified on HisTrap FF; also called FcRn complex
As to the kind of experiment: SPR, Biacore T200, IgG captured on Protein L chip, feline FcRn flowed over, pH 5.9, 1:1 fit. The procedure:
The feline FcRn binding experiments at pH 5.9 were completed on a BIACORE™ T200 instrument. A Series S Protein L Sensor chip (Cytiva, Cat. No. BR29205137) was used to capture the antibody variants via the kappa (κ) light chain. The feline variants were captured onto the protein L chip at a flow rate of 10 μL/min for 60 seconds. 1×PBX-P+(Cytiva Cat 28995084) was adjusted to pH 5.9 for the running buffer. The feline FcRn was flowed over the sensor chip at 30 μL/min for 120 seconds contact time and 600 seconds dissociation time. Regeneration of the flow cells was completed by flowing over 10 mM glycine, pH 1.7 at 30 μL/min for 30 seconds. The data were evaluated by the BIACORE™T200 Evaluation software v3.2.1 by fitting to a 1:1 kinetic interaction model.
(In general: SPR reads the build-up and loss of mass on a sensor chip optically.)
For the molecule B1, the Kd is 417 nM, the off-rate constant (koff) came to 0.273 s⁻¹ and the kon was determined as 709000 M⁻¹ s⁻¹.
In the same order, the values of B2 are 216 nM, 0.187 s⁻¹ and 869000 M⁻¹ s⁻¹.
For B3, in that order: 279 nM, 0.192 s⁻¹ and 690000 M⁻¹ s⁻¹.
The molecule B4 registered a Kd of 129 nM, a koff of 0.124 s⁻¹ and an association rate constant (kon) of 958000 M⁻¹ s⁻¹.
For the molecule B5, the Kd was 352 nM, the off-rate constant (koff) came to 0.203 s⁻¹ and the on-rate constant (kon) worked out at 581000 M⁻¹ s⁻¹.
For the molecule B6, the Kd is 202 nM, the koff amounted to 0.175 s⁻¹ and the kon is 862000 M⁻¹ s⁻¹.

By Kd is commonly meant the constant that tells how readily two partners part at equilibrium. Broadly, the koff is the rate constant with which the complex falls apart. A low value points to a long-lived complex. The term kon denotes the rate constant with which the complex forms.
